Measured values as given in publication PMC12016518.

Biological target: T1, VPA1365-His (Vibrio parahaemolyticus RIMD2210633) (UniProt Q87GF1)
T1 sequence: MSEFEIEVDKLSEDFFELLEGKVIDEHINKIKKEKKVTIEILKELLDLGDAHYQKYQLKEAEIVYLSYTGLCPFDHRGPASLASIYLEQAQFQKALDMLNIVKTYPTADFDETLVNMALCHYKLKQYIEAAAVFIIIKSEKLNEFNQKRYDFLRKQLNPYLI
Assay: EMSA
Conditions: EMSA: 30 nM 5'-FAM probe, 20 µL with 4 µL 5x buffer (10 mM NaCl, 0.1 mM DTT, 0.1 mM EDTA, 10 mM Tris, pH 7.4; unclear if 5x or final), 25°C, 0.5 h, 6% PAGE

CGCTCTATAATGCTGACCCTTTTATCAATACTGTACTTATTTCCACAACAAAAAAGCGTACAGTTATTTACTTTTTTACCTTTAACTTGCTGTGAAAATAATATCGTCGACCTGCAGGCA (double strand) [mshA promoter]
binding: binds

GCGCATAGCTGTTATAAGAATCCTCAATTCATTTCAATTAATGAGTATTCAGTCAATTAATAGAGCGATTTACTTCATAAAACCATTTTATTTTTATGGACTTAGCTCAAGAAATGACAGCATTATTAACTAATTTTAATAATTTGAGGAATGCATCAATAACTATTTCATATAAACACGATTTACTGTTGACTAAGTTTTATAAATATCGATGATCAGCAAGTTAAACTGAACGAAGTTTTATTCATTTGAAAGCGCAAGAACATGACTATCGTCGACCTGCAGGCA (double strand) [scrG promoter (PscrG)]
binding: binds

TGCCTGCAGGTCGACGATCACAAGCAACAAAATTCATATTACTTCAACTAACTCAGTAAGTTGTAAGTAATTCATCATTAAAAAGGGCCACTAGGCCCTTTCTTTTTATCCATTAAAAAATAGCATTACTCGCAAAACTCTGCATACGATATGCAACTTTCTACCAAAGAGTTTTACCTCACTCGAGACCCCATCTCTTCCCCATTTTCAACCTTTATGAAGTCTCCATAATCCTTCGCTAATGCAAGGGCATTATTTATTTCATTAAGAAGGAAAG (double strand) [pilA promoter]
binding: binds
